How the values were obtained:
[1] = molecular target: T1, PR (Homo sapiens, UniProt P06401); assay: PR transactivation with ARA70 in DU145 cells (Example 3); assay type: cell-based
T1 construct: expressed in transfected cells; host or cells: DU145, PC-3
T1 sequence (P06401 1-933): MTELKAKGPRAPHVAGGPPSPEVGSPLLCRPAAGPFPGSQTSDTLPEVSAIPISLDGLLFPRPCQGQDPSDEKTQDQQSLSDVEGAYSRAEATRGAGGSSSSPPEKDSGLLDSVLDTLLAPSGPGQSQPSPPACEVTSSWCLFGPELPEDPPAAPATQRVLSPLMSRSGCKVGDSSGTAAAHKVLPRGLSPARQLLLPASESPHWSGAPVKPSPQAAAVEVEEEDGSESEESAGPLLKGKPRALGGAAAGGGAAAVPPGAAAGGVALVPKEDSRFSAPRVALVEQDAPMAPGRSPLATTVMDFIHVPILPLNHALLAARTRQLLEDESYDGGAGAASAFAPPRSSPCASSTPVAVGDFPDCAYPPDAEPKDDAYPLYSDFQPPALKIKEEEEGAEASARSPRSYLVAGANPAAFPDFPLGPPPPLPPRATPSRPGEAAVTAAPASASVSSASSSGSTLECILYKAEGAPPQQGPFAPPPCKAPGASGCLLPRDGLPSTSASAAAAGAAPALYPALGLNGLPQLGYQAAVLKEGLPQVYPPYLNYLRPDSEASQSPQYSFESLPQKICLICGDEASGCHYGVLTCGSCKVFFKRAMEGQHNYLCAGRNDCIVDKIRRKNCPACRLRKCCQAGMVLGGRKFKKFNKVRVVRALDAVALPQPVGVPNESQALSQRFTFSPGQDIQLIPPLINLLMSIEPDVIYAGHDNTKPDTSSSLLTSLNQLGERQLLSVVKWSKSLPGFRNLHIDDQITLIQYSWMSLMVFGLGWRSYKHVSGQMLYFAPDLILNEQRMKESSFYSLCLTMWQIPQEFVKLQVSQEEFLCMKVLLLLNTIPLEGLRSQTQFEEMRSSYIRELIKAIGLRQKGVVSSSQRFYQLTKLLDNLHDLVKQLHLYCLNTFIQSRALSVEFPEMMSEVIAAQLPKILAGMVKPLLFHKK
Protocol: (§1) 411. Human prostate cancer DU145 and PC-3 cells were maintained in […] (DMEM) containing penicillin (25 U/ml), streptomycin (25 μg/ml), and 5% fetal calf serum (FCS). Human LNCaP cells were maintained in RPMI containing penicillin (25 U/ml), streptomycin (25 μg/ml), and 10% FCS. Transfections were performed using the calcium phosphate precipitation method, as previously described (Dynlacht et al. (1991) Cell 66, 563-576). Briefly, 4×10^5 cells were plated on 60-mm dishes 24 hours before transfection, and the medium was changed to DMEM with 5% charcoal-dextran stripped FCS (CS-FBS) one hour before transfection. Transfection medium contained a constant amount of reporter plasmid and indicated amounts of pSG5-receptor, ARA70, or pCMX-GAL fusion construct using pSG5 as a carrier to provide equal amounts of transfected DNA. Twenty-four hours after transfection, the medium was changed again, and the cells were treated with DHT or other treatments. After another 24 hours, the cells were harvested for chloramphenicol transferase (CAT) or luciferase assays. At least three independent experiments were carried out in each case. Superfect (Qiagen) was used for transfection in LNCaP cells. The transfection conditions followed the manufacturer's protocol. […]

[2] = molecular target: T2, GR (Homo sapiens, UniProt P04150); assay: GR transactivation with ARA70 in DU145 cells (Example 3); assay type: cell-based; parameters: expressed in transfected cells; host or cells: DU145
T2 sequence (P04150 1-777): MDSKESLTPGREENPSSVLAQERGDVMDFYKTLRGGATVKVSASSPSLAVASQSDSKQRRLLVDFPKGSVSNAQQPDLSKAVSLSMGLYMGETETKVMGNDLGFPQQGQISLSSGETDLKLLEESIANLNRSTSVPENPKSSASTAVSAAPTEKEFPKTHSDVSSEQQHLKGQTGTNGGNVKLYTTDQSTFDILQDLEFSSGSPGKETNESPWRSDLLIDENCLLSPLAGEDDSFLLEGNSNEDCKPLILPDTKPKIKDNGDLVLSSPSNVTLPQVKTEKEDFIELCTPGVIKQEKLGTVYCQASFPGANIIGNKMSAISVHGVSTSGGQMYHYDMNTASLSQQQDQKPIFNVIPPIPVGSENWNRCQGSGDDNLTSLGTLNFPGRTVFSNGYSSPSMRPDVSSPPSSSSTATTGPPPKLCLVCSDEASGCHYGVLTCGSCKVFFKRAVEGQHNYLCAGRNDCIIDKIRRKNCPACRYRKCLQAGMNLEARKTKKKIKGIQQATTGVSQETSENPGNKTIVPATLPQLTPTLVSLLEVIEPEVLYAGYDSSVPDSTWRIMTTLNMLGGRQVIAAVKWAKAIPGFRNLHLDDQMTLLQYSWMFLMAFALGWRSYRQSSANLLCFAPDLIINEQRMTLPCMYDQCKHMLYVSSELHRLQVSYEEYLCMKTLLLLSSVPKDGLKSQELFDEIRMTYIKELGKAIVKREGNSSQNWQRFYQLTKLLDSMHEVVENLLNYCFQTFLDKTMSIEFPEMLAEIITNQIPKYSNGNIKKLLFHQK
Protocol: as §1

[3] = test system: p27^KIP1; assay: Western blot of p27KIP1 in PC-3(AR2) cells; assay type: cell-based, human; settings: 10 nM DHT
Protocol: 41. […] (A) C2C12, COS-1, DU145 and PC-3 cell lines were co-transfected with 30 ng pSG5-AR, 0.5 μg MMTV-Luc, 1 ng pRL-SV40, various amounts of pSG5-bSV as indicated, and adjusted to total amount of 2 μg DNA with pSG5. The assay method was the same as FIG. 2. After measuring the luciferase activity, values relative to lane 1 were calculated. Results are the mean±S.D. of three independent experiments. (B) PC-3 was co-transfected with 30 ng pSG5-AR, 1.5 μg pSG5-bSV, 1 ng pRL-SV40, and 0.5 μg reporter gene as indicated by using SuperFect. […] (C) PC-3(AR2) cell line was transfected with EGFP or EGFP-bSV expressing vector using SuperFect. […] Proteins extracted from cells were loaded on 15% SDS-PAGE and analyzed by western blotting. The intensity of each p27 band was quantified and normalized with control protein which is a non-specific band pick up by the antibody in the same blot. The relative intensities to lane 1 were calculated.
478. Protein samples extracted from the cell were separated on 15% SDS-PAGE and transferred to nitrocellulose membranes. Membranes were incubated 1 h with 5% non-fat milk in TBST at room temperature, followed by the antibodies against p27^(KIP1) (Santa Cruz), followed by AP conjugated goat-antimouse antibody. Blots were developed using the AP developing reagent from Bio-Rad. Band intensity was quantitated by Collage® image analysis software (Fotodyne Inc.).

ARA70: ligand-enhanced AR coregulator, full length ARA70
enhancement of PR transactivation [1]: 2-3 fold | enhancement of GR transactivation [2]: 2-3 fold

SV: supervillin, 205 kDa actin binding protein; bovine SV (a.a. 1-1792) used in reporter assays
p27^(KIP1) protein expression [3]: further enhanced p27^(KIP1) protein expression

From patent publication US20060270591A1, “Androgen receptor coregulators” (priority 2002, published 2006)
